How the values were obtained:
[1] = target: T1, EGFR-Fc (recombinant human extracellular domain of EGFR fused to an IgG1 Fc) (Homo sapiens, UniProt P00533); assay: Affinity of FN3 domains to EGFR-Fc by surface plasmon resonance (ProteOn), incl. off-rate screen; assay type: binding; settings: SPR ProteOn, 1:1 Langmuir fit
T1 construct: purchased R&D Systems
Description: Select EGFR-binding FN3 domains were screened to identify those with slow off-rates (koff) in binding to EGFR-Fc on a ProteOn XPR-36 instrument (Bio-Rad) to facilitate selection of high affinity binders. Goat anti-human Fc IgG (R&D systems), at a concentration of 5 μg/mL, was directly immobilized via amine coupling (at pH 5.0) on all 6 ligand channels in horizontal orientation on the chip with a flow rate of 30 μL/min in PBS containing 0.005% Tween-20. The immobilization densities averaged about 1500 Response Units (RU) with less than 5% variation among different channels. EGFR-Fc was captured on the anti-human Fc IgG surface to a density around 600 RU in vertical ligand orientation. All tested FN3 domains were normalized to a concentration of 1 μM and tested for their binding in horizontal orientation. […] The dissociation phase was monitored for 10 minutes at a flow rate of 100 μL/min. […]
Binding affinity of selected EGFR-binding FN3 domains to recombinant EGFR extracellular domain was further characterized by surface Plasmon resonance methods using a Proteon Instrument (BioRad). […] The dissociation phase for all concentrations of each EGFR-binding FN3 domain was monitored at a flow rate of 100 μL/min for 30 minutes (for those with koff˜10^−2 s^−1 from off-rate screening), or 1 hour (for those with koff˜10^−3 s^−1 or slower). […]

EGFR = EGFR (Homo sapiens, UniProt P00533); assay: Inhibition of EGF-stimulated EGFR phosphorylation in A431 cells (phospho-EGFR assay); assay type: cell-based; settings: 50 ng/mL EGF, EGFR Tyr1173
Description: Purified EGFR-binding FN3 domains were tested for their ability to inhibit EGF-stimulated phosphorylation of EGFR in A431 cells at a single concentration. EGFR phosphorylation was monitored using the EGFR phospho(Tyr1173) kit (Meso Scale Discovery). Cells were plated at 20,000/well in clear 96-well tissue culture-treated plates (Nunc) in 100 μL/well of RPMI medium (Gibco) containing GlutaMAX™ with 10% fetal bovine serum (FBS) (Gibco) and allowed to attach overnight at 37° C. in a humidified 5% CO2 atmosphere. Culture medium was removed completely and cells were starved overnight in 100 μL/well of medium containing no FBS at 37° C. in a humidified 5% CO2 atmosphere. […] Signals were detected by addition of 150 μL/well of Read Buffer (Meso Scale Discovery) and reading on a SECTOR® Imager 6000 instrument (Meso Scale Discovery) using manufacturer-installed assay-specific default settings. Percent inhibition of the EGF-stimulated positive control signal was calculated for each EGFR-binding FN3 domain.
Data were plotted as electrochemiluminescence signal against the logarithm of the FN3 domain molar concentration and IC50 values were determined by fitting data to a sigmoidal dose response with variable slope using GraphPad Prism 4 (GraphPad Software). […]

Kd [1]: 2.51 nM
IC50 (EGFR): 295 nM
B1: P54AR4-47: EGFR-binding FN3 domain, SEQ ID NO: 20 (protein)
chain: LPAPKNLVVSEVTEDSLRLSWGYNGDHFDSFLIQYQESEKVGEAINLTVPGSERSYDLTGLKPGTEYTVSIYGVHNVYKDTNMRGLPLSAEFTT
modifications: EGFR binding FN3 domain
